Measurements from US20240255522A1 (published 2024).
Where no end group is shown, it is not given here.

Columns and labels:
[1] = biological target: HLA-DRB1*01:01 MHCII molecule (human); test: saturation binding ELISA; pH 5; second sample
[2] = biological target: HLA-DRB1*08:01 MHCII molecule (human); test: saturation binding ELISA; pH 5
[3] = biological target: HLA-DRB1*11:01 MHCII molecule (human); test: saturation binding ELISA; pH 5
[4] = biological target: HLA-DRB1*15:01 MHCII molecule (human); test: saturation binding ELISA; pH 5
[5] = biological target: HLA-DRB1*09:01 MHCII molecule (human); test: saturation binding ELISA; pH 5
[6] = biological target: HLA-DRB1*04:01 MHCII molecule (human); test: saturation binding ELISA; pH 5
[7] = biological target: HLA-DRB1*01:01 MHCII molecule (human); test: saturation binding ELISA; pH 5
[8] = biological target: HLA-DRB1*08:01 MHCII molecule (human); test: saturation binding ELISA
[9] = biological target: HLA-DRB1*11:01 MHCII molecule (human); test: saturation binding ELISA
[10] = biological target: HLA-DRB1*15:01 MHCII molecule (human); test: saturation binding ELISA
[11] = biological target: HLA-DRB1*09:01 MHCII molecule (human); test: saturation binding ELISA
[12] = biological target: HLA-DRB1*04:01 MHCII molecule (human); test: saturation binding ELISA
[13] = biological target: HLA-DRB1*01:01 MHCII molecule (human); test: saturation binding ELISA

Work on PVSKMRMATPLLMQA (also: biotinylated, position not given here) [biotinylated high affinity huCLIP] yielded a Kd [1] of 8.7 nM, a Kd [2] of 16.8 nM and a Kd [3] of 30.9 nM. The Kd [4] was 87.9 nM, the Kd [5] was 380 nM and the Kd [6] was 200 nM. It also gave a Kd [7] of 7.1 nM, a Kd [8] of 14.4 nM and a Kd [9] of 24.5 nM. For the same binder, the Kd [10] was 109 nM, the Kd [11] was 510 nM and the Kd [12] was 183 nM. The Kd [13] was 6.09 nM.
